Experimental data published in patent publication US20240279332A1 (Amgen, published 2024).
Changes are numbered by the printed parent chain.

B1: 50A12 (antibody, V domains shown)
VH: EVQLVESGGGLVQPGGSLRLSCAASGFTFSSYWMSWVRQAPGKGLEWVANIKQDGSEEYYVDSVKGRFTISRDNAKNSLFLQMNSLRAEDTAVYYCARDYGDSFDYWGQGTLVTVSS
VL: DIQMTQSPSSVSASVGDRVTITCRASQGIRKWLAWYQQKPGRAPKLLIYAASRLQSGVPSRFSGSGSGTDFTLTISSLRPEDFATYYCLQAHGFPWTFGQGTKVEIKR
B2: 64D7 (antibody, V domains shown)
VH: QVQLVQSGAEVKKPGASVKVSCKASGYTFTSYDINWVRQATGQGLEWMGWMNPNRGNTGYVKKFQGRVTMTRNTSISTAYMELSSLRSEDTAVYYCARRRAVYRSSWEWYFDLWGRGTLVTVSS
VL: DTQMTQSPSSLSASEGDRVTITCQASQDIFNDLNWYQEKPGKAPKLLIYHASNLETGVPSRFSGSGSGTDYTFTISSLQPEDIATYYCQQYGNLPLTFGGGTKVEIKR
B3: 49A2 (antibody, V domains shown)
VH: EVQLVESGGGLVQPGGSLRLSCAASGFTFSSNWMSWVRQAPGKGLDWMASMKQDGSEIYYVDSVKGRFTISRDNAKNSLHLQMNSLRAEDTAVYYCVRGGWRFESWGQGALVTVSS
VL: EIVMTQSPATLSVSPGERATLSCRASQSVSSNLAWYQQKSGQAPRLLIYGASIRATGIPARVSGSGSGTEFTFTISSLQSEDFAVYYCQQYKNWPLTLGGGTKVEIKR
B4: 61G5 (antibody, V domains shown)
VH: QVQLVQSGAEVKKPGASVKVSCKASGYTFTSYDINWVRQATGQGLEWMGWMNPNSGNSGSVKKFRDRVTMTRNTSISTAYMELSSLRSEDTAVYYCVRLIGYSSAWKWSFQHWGQGTLVTVSS
VL: DIQMTQSPSSLSASVGDRVTITCQASRDISKYLNWYQQKPGKAPKLQIYDASNLETGVPSRFSGSGSGTDFTFTISSLQPEDIATYYCQHYDNIPITFGQGTRLEIKR
B5: 30H2 (antibody, V domains shown)
VH: EVQVLESGGGLVQPGESLRLSCTASGFTFNAYAMSWVRQAPGKGLEWVSTISGSGSTTYYADSVKGRFTISRDNSKNTLDLQMNSLRAADTAVYYCAKVAGSNFFFDHWGQGTLVTVSS
VL: EIVMTQSPATLSVSPGERATLSCRASQSINSNLAWYQQKPGQAPRLLIYGAYTRATGIPDRFSGSGSGTEFTLTISSLQSEDFAVYYCQEFIMWPPWTFGLGTQVEIKR
B6: 46H7 (antibody, V domains shown)
VH: EVQLLESGGGMVQPGGSLRLSCAVSGFTFSRYAMSWVRQAPGKGLEWVSEMRGSSGSTYYADSVKGRFTISRDNSKNTLYLQMNSLRVEDTAIYYCAKEFSSNSLFDYWGQGTLVTVSS
VL: B5 VL with I29V, Q42R, Y52S, D60A, E90Q, I92Y, M93N, L101Q, Q104K
B7: 66B8 (antibody, V domains shown)
VH: QVQLVQSGAEVKKPGASVKVSCKASGYTFTGYYMHWVRQAPGQGLEWMGWFKPNSGVTNYAQKFQGRVTMSRDTSISTAYMELSSLRSDDTAVYYCARAGYSTSWKDWFDPWGQGTLVTVSS
VL: DIQMTQFPSSVSASVGDRVTITCRASQGISRWLAWYQQKQGKAPKLLIYMVSSLQSGVPSRFSGSGSGTDFTLTISSLQPEDFATYYCQQSHNFPITFGQGTRLDIKR
B8: 57C10 (antibody, V domains shown)
VH: QVQLVQSGAEVKKPGASVKVSCKASGYTFTRYDINWVRQATGQGLEWMGWLNPNSGNTGQTQKFRGRVTMTRNTSINTAYMELSSLRSEDTAVYYCARGGYTSAWRWYFDLWGRGTLVTVSS
VL: DIQMTQSPSSLSASVGDRVTITCQASQDINNHLNWYQQKPGKAPKLLIYDVSNLETGVPSSFSGSGCGTDFTFTISSLQPEDIATYFCQQYDKLPLTFGGGTKVEIEG
B9: 61B12 (antibody, V domains shown)
VH: QVQLVQSGAEVTKPGASVKVSCKASGYTFTRYDINWVRQATGQGLEWMGWMNPNSGNSGSVQKFRGRVTMTRNTSITTVYMELSSLRSDDTAVYYCARGGISSSWHWAFDIWGQGTMVTVSS
VL: B8 VL with D50G, V51A, S52Y, N53T, S61R, C67S, F87Y, E107K, G108R
B10: 63F8 (antibody, V domains shown)
VH: QVQLVQSGAEVKKPGASVKVSCKASGYTFTSYDINWVRQATGQGLEWMGRMNPKSGNAGYVQNFRGRVTMTRNTSISTAYMELSSLRSEDTAVYYCARGGRTSIWSFVFDYWGQGTLVTVSS
VL: B8 VL with N30S, N31K, V51T, S61R, C67S, F87N, E107K, G108R
B11: 44A5 (antibody, V domains shown)
VH: EVQLLESGGGLVQPGGSLRLSCAASGFTFSTYAMNWVRQAPGKGLEWVSTVSGSGRPTYYADSVKGRFTISRDNSKNTLYLQMNSLRAEDTAVYYCAKAYYSNYLFDYWGQGTLVTVSS
VL: EIVMTQSPAILSVSPGERATLSCRASQSVSSNLAWYQQKPGQAPRLLIYGASTRATGVPARFSGGGSGTDFTLTISSLQSEDFAVYYCQHCKTWPPLTFGGGTKVDLKR

Each binder was assayed against T1, cyno TREM-1 on cells (cynomolgus monkey, UniProt A0A2K5VHG8 21-233) (assay: cell-based or functional assay).
T1 sequence: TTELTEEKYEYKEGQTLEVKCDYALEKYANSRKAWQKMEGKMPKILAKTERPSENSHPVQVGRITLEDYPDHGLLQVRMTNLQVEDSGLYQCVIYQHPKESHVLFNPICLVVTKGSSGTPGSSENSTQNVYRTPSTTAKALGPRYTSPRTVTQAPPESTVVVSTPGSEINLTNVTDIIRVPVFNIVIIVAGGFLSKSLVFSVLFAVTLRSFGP

| Binder | Ab IC50-Cyno PBMC (Trial 1), TNFα release after cyno PGLYRP1/PGN | Ab IC50-Cyno PBMC (Trial 2), TNFα release after cyno PGLYRP1/PGN |
| --- | --- | --- |
| B1 | 2 nM | – |
| B2 | 6.94 nM | 0.78 nM |
| B3 | 0.732 nM | 0.266 nM |
| B4 | – | 2.34 nM |
| B5 | 3.77 nM | – |
| B6 | 0.0951 nM | 0.0097 nM |
| B7 | 0.114 nM | 0.0232 nM |
| B8 | 0.154 nM | 0.0284 nM |
| B9 | 0.0469 nM | 0.0174 nM |
| B10 | 0.0226 nM | 0.0161 nM |
| B11 | 0.0579 nM | 0.0091 nM |
